Measured values from publication PMC3791462, “Role of the C-terminal domain in the structure and function of tetrameric sodium channels” (Nature Communications, 2013).

B1: NavMs-pore+CTD (wild-type pore with full-length C-terminal domain of the NavMs sodium channel from Magnetococcus marinus MC-1) (domain or fragment, UniProt A0L5S6 130-274, looked up)
chain: GVGSVAALLTVVFYIAAVMATNLYGATFPEWFGDLSKSLYTLFQVMTLESWSMGIVRPVMNVHPNAWVFFIPFIMLTTFTVLNLFIGIIVDAMAITKEQEEEAKTGHHQEPISQTLLHLGDRLDRIEKQLAQNNELLQRQQPQKK
notes: Plasmid pET15b; also called unlabelled wild-type construct; wild-type pore+CTD protein; source: E. coli C41(DE3), purified (HisTrap HP, thrombin, second HisTrap HP, size exclusion) in HEGA-10
B2: NavMs-pore+CTD I241C, PROXYL spin-labelled (domain or fragment, Magnetococcus marinus MC-1, UniProt A0L5S6 130-274, looked up)
chain: GVGSVAALLTVVFYIAAVMATNLYGATFPEWFGDLSKSLYTLFQVMTLESWSMGIVRPVMNVHPNAWVFFIPFIMLTTFTVLNLFIGIIVDAMAITKEQEEEAKTGHHQEPCSQTLLHLGDRLDRIEKQLAQNNELLQRQQPQKK
modifications: 3-(2-iodoacetamido)-PROXYL nitroxide spin label on cysteine 241
notes: source: E. coli C41(DE3), purified (HisTrap HP, thrombin, size exclusion), spin-labelled
B3: NavMs-pore+CTD A260C, PROXYL spin-labelled (domain or fragment, Magnetococcus marinus MC-1, UniProt A0L5S6 130-274, looked up)
chain: GVGSVAALLTVVFYIAAVMATNLYGATFPEWFGDLSKSLYTLFQVMTLESWSMGIVRPVMNVHPNAWVFFIPFIMLTTFTVLNLFIGIIVDAMAITKEQEEEAKTGHHQEPISQTLLHLGDRLDRIEKQLCQNNELLQRQQPQKK
modifications: 3-(2-iodoacetamido)-PROXYL nitroxide spin label on cysteine 260
notes: as for B2
B4: NavMs-pore+CTD A223C, PROXYL spin-labelled (domain or fragment, Magnetococcus marinus MC-1, UniProt A0L5S6 130-274, looked up)
chain: GVGSVAALLTVVFYIAAVMATNLYGATFPEWFGDLSKSLYTLFQVMTLESWSMGIVRPVMNVHPNAWVFFIPFIMLTTFTVLNLFIGIIVDAMCITKEQEEEAKTGHHQEPISQTLLHLGDRLDRIEKQLAQNNELLQRQQPQKK
modifications: 3-(2-iodoacetamido)-PROXYL nitroxide spin label on cysteine 223
notes: as for B2
B5: NavMs-pore+CTD D250C, PROXYL spin-labelled (domain or fragment, Magnetococcus marinus MC-1, UniProt A0L5S6 130-274, looked up)
chain: GVGSVAALLTVVFYIAAVMATNLYGATFPEWFGDLSKSLYTLFQVMTLESWSMGIVRPVMNVHPNAWVFFIPFIMLTTFTVLNLFIGIIVDAMAITKEQEEEAKTGHHQEPISQTLLHLGCRLDRIEKQLAQNNELLQRQQPQKK
modifications: 3-(2-iodoacetamido)-PROXYL nitroxide spin label on cysteine 250
notes: as for B2
B6: NavMs-pore+CTD A221C, PROXYL spin-labelled (domain or fragment, Magnetococcus marinus MC-1, UniProt A0L5S6 130-274, looked up)
chain: GVGSVAALLTVVFYIAAVMATNLYGATFPEWFGDLSKSLYTLFQVMTLESWSMGIVRPVMNVHPNAWVFFIPFIMLTTFTVLNLFIGIIVDCMAITKEQEEEAKTGHHQEPISQTLLHLGDRLDRIEKQLAQNNELLQRQQPQKK
modifications: 3-(2-iodoacetamido)-PROXYL nitroxide spin label on cysteine 221
notes: as for B2
B7: NavMs-pore+CTD A221C/D250C double mutant, PROXYL spin-labelled (domain or fragment, Magnetococcus marinus MC-1, UniProt A0L5S6 130-274, looked up)
chain: GVGSVAALLTVVFYIAAVMATNLYGATFPEWFGDLSKSLYTLFQVMTLESWSMGIVRPVMNVHPNAWVFFIPFIMLTTFTVLNLFIGIIVDCMAITKEQEEEAKTGHHQEPISQTLLHLGCRLDRIEKQLAQNNELLQRQQPQKK
modifications: 3-(2-iodoacetamido)-PROXYL nitroxide spin labels on cysteines 221 and 250
notes: as for B2
B8: NavMs-pore+CTD A232C, PROXYL spin-labelled (domain or fragment, Magnetococcus marinus MC-1, UniProt A0L5S6 130-274, looked up)
chain: GVGSVAALLTVVFYIAAVMATNLYGATFPEWFGDLSKSLYTLFQVMTLESWSMGIVRPVMNVHPNAWVFFIPFIMLTTFTVLNLFIGIIVDAMAITKEQEEECKTGHHQEPISQTLLHLGDRLDRIEKQLAQNNELLQRQQPQKK
modifications: 3-(2-iodoacetamido)-PROXYL nitroxide spin label on cysteine 232
notes: as for B2
B9: NavMs-pore+CTD K273C, PROXYL spin-labelled (domain or fragment, Magnetococcus marinus MC-1, UniProt A0L5S6 130-274, looked up)
chain: GVGSVAALLTVVFYIAAVMATNLYGATFPEWFGDLSKSLYTLFQVMTLESWSMGIVRPVMNVHPNAWVFFIPFIMLTTFTVLNLFIGIIVDAMAITKEQEEEAKTGHHQEPISQTLLHLGDRLDRIEKQLAQNNELLQRQQPQCK
modifications: 3-(2-iodoacetamido)-PROXYL nitroxide spin label on cysteine 273
notes: as for B2
B10: NavMs-pore+CTD R268C, PROXYL spin-labelled (domain or fragment, Magnetococcus marinus MC-1, UniProt A0L5S6 130-274, looked up)
chain: GVGSVAALLTVVFYIAAVMATNLYGATFPEWFGDLSKSLYTLFQVMTLESWSMGIVRPVMNVHPNAWVFFIPFIMLTTFTVLNLFIGIIVDAMAITKEQEEEAKTGHHQEPISQTLLHLGDRLDRIEKQLAQNNELLQCQQPQKK
modifications: 3-(2-iodoacetamido)-PROXYL nitroxide spin label on cysteine 268
notes: as for B2

Biological target: the molecule itself
Test: SEC; Superdex 200 10/300 GL, buffer A (10 mM Tris-HCl pH 7.5, 100 mM NaCl, 0.52% HEGA-10); detergent-solubilised protein

Stoichiometry N, 4:
B1, B2, B3, B4, B5, B6, B7, B8, B9, B10
